The target of assay [1] is T1, human FN14 on the cell surface (FN14-transfected cells or cancer cell lines intrinsically expressing FN14, … (human, UniProt Q9NP84 28-129)).
T1 construct: The cells in the assays are human cancer lines or FN14-transfected cells (293F/FN14); also called TWEAKR; CD266
T1 sequence: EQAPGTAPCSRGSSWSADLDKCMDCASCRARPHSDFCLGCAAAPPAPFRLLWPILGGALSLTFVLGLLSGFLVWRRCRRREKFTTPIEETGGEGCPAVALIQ
The assay is described as follows: binding affinity; method not restated in Example 3 (saturation binding on FN14-expressing cells by the methods of Example 1).

The target of assay [2] is T2, recombinant human FN14-Fc fusion protein (rhFN14-Fc; R&D Systems) (human, UniProt Q9NP84 28-79).
T2 construct: Bought reagent; Detected with PECy5-labeled anti-human IgG(Fc); also called soluble FN14; PECy5-labelled soluble antigen; not shown: Fc part of the bought fusion protein (detected with anti-human IgG(Fc))
T2 sequence: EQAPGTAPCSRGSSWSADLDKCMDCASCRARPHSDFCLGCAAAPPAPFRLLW
Kind of assay: saturation binding of PECy5-labelled soluble antigen to FN14-specific DTLacO cells, flow cytometry. On the technique in general: Flow cytometry measures light scatter and fluorescence of single cells or particles in a stream.

In assay [3] the target is T1, human FN14 on the cell surface …. The assay is described as follows: saturation binding of recombinant antibody on target-expressing cells.
Protocol: (§1) Saturation binding kinetics were determined by either staining FN14-specific DTLacO cells with various concentrations of fluorescent-labeled soluble antigen, or by staining FN14-transfected cells or cancer cell lines intrinsically expressing FN14 with various concentrations of the recombinant chimeric anti-FN14 mAbs.
Assay [4] has the same target. The assay is described as follows: binding affinity; method not restated in Example 3 (saturation binding on FN14-expressing cells by the methods of Example 1). This is another data set of the same source.
Assay [5] shares this target. The assay is described as follows: saturation binding of recombinant antibody on target-expressing cells (A375 melanoma).
Protocol: as §1
The target of assay [6] is T2, recombinant human FN14-Fc fusion …. The assay is described as follows: saturation binding of soluble antigen to DTLacO[FS24] cells, flow cytometry.

The values below come from patent US20120258121A1 (OMEROS, published 2012).

B1: Humanized PS4: H.1/L.1 (antibody, human IgG1)
heavy: not shown
light: SYELTQPPSVSVSPGQTARITCSGGGSSYYAGSYYYGWYQQKPGQAPVTVIYYNNKRPSGIPERFSGSLSGSTNTLTISGVQAEDEADYYCGSIDNSGAAFGGGTKLTVLGQPKAAPSVTLFPPSSEELQANKATLVCLISDFYPGAVTVAWKADSSPVKAGVETTTPSKQSNNKYAASSYLSLTPEQWKSHRSYSCQVTHEGSTVEKTVAPTECS
notes: also called first humanized version of PS4
B1: binding in assay [1] was put at a Kd of 15 nM.

B2: surface immunoglobulin of the FN14-specific DTLacO cell population FS17 (antibody, V domains shown)
VH: AVTLDESGGGLQTPGGALSLVCKASGFTFSSYDMAWVRQEPGKGLEWVAGIDDDGSGRRYAPAVKGRATISRDNGQSTLRLQLNNLRAEDTGTYYCTKCAYTGGCDYEGGYIDAWGHGTEVIVSS
VL: ALTQPASVSANPGETVKITCSGGGSSYYAGSYYYGWYQQKAPGSAPVTLIYYNNKRPSDIPSRFSGSLSGSTNTLTITGVRADDEAVYFCGSIDNSGAAFGAGTTLTVL
notes: Chicken surface IgM on DTLacO cells
For B2, in assay [2], the Kd came out at 0.7 nM.

B3: chimeric PS4 antibody (parent of the humanized PS4 versions) (antibody, human IgG1, lambda, V domains shown)
VH: AVTLDESGGGLQTPGGALSLVCKASGFTFSSYDMFWVRQEPGKGLEWVAGIDDDGSGRRYAPAVKGRATISRDNGQSTLRLQLNNLRAEDTGTYYCTKCAYSSGCDYEGGYIDAWGHGTEVIVSS
VL: ALTQPASVSANPGETVKITCSGGGSSYYAGSYYYGWYQQKSPGSAPVTVIYYNNKRPSDIPSRFSGSLSGSTNTLTITGVRADDEAVYFCGSIDNSGAAFGAGTTLTVLG
notes: also called Chicken PS4; original chimeric antibody PS4
The molecule B3 gave a Kd in assay [1] of 0.21 nM.

B4: recombinant chimeric monoclonal antibody PS4B (chicken V regions, human IgG1 / lambda constant regions) (antibody, V domains shown)
VH: AVTLDESGGGLQTPGGALSLVCKASGFTFSSYDMFWVRQEPGKGLEWVAGIDDDGSGRRYAPAVKGRATISRDNGQSTLRLQLNNLRAEDTGTYYCTKCAYSSGCDYEGGYIDAWGHGTEVIVSS
VL: ALTQPASVSANPGETVKITCSGGGSSYYAGSYYYGWYQQKSPGSAPVTVIYYNNKRPSDIPSRFSGSLSGSTNTLTITGVRADDEAVYFCGSIDNSGAAFGAGTTLTVLG
Take B4: the Kd in assay [3] is 0.35 nM.

B5: recombinant chimeric monoclonal antibody FS10 (chicken V regions, human IgG1 / lambda constant regions) (antibody, V domains shown)
VH: AVTLDESGGGLQTPGGALSLVCKASGFTFSSYDMAWVRQEPGKGLEWVAGIDDDGSGRRYAPAVKGRATISRDNGQSTLRLQLNNLRAEDTGTYYCTKCAYSSGCDYEGGYIDAWGHGTEVIVSS
VL: ALTQPASVSANPGETVKITCSGGGSSYYAGSYYYGWYQQKAPGSALVTLIYYNNKRPSDIPSRFSGSLSGSTNTLTITGVRADDEAVYFCGSADNSGAAFGAGTTLTVLG
notes: expressed in 293F cells; also called mAb FS10
Turning to B5, the equilibrium dissociation constant (Kd) in assay [3] is 25 nM.

B6: recombinant chimeric monoclonal antibody FS17 (chicken V regions, human IgG1 / lambda constant regions) (antibody, V domains shown)
VH: AVTLDESGGGLQTPGGALSLVCKASGFTFSSYDMAWVRQEPGKGLEWVAGIDDDGSGRRYAPAVKGRATISRDNGQSTLRLQLNNLRAEDTGTYYCTKCAYTGGCDYEGGYIDAWGHGTEVIVSS
VL: ALTQPASVSANPGETVKITCSGGGSSYYAGSYYYGWYQQKAPGSAPVTLIYYNNKRPSDIPSRFSGSLSGSTNTLTITGVRADDEAVYFCGSIDNSGAAFGAGTTLTVLG
notes: also called mAb FS17
Consider B6, for which the Kd in assay [3] was 0.36 nM.

B7: recombinant chimeric monoclonal antibody FS24 (chicken V regions, human IgG1 / lambda constant regions) (antibody, V domains shown)
VH: AVTLDESGGGLQTPGGALSLVCKASGFTFSSYDMAWVRQEPGKGLEWVAGIDYDGSGRRYAPAVKGRATISRDNGQSTLRLQLNNLRAEDTGTYYCTKCGYTGGCDYEGGYIDAWGHGTEVIVSS
VL: ALTQPSSVSANPGETVKITCSGGGSSYYAGSYYYGWYQQKAPGSAPVTLIYYNNKRPSDIPSRFSGSLSGSTNTLTITGVRADDEAVYFCGSIDNSGAAFGAGTTLTVLG
notes: also called mAb FS24; Chicken FS24
As to B7, the values for the dissociation constant (Kd) in assay [4] and in assay [5] were 0.26 nM and 0.21 nM, respectively.

B8: surface immunoglobulin of the FN14-specific DTLacO cell population FS10 (antibody, V domains shown)
VH: AVTLDESGGGLQTPGGALSLVCKASGFTFSSYDMAWVRQEPGKGLEWVAGIDDDGSGRRYAPAVKGRATISRDNGQSTLRLQLNNLRAEDTGTYYCTKCAYSSGCDYEGGYIDAWGHGTEVIVSS
VL: ALTQPASVSANPGETVKITCSGGGSSYYAGSYYYGWYQQKAPGSALVTLIYYNNKRPSDIPSRFSGSLSGSTNTLTITGVRADDEAVYFCGSADNSGAAFGAGTTLTVL
notes: Chicken surface IgM on DTLacO (DT40-derived) cells
For B8, the equilibrium dissociation constant (Kd) in assay [2] turned out to be 25 nM.

B9: recombinant chimeric monoclonal antibody PS4A (chicken V regions, human IgG1 / lambda constant regions) (antibody, V domains shown)
VH: AVTLDESGGGLQTPGGALSLVCKASGFTFSSYDMFWVRQEPGKGLEWVAGIDDDGSGRRYAPAVKGRATISRDNGQSTLRLQLNNLRAEDTGTYYCTKCAYSSGCDYEGGYIDAWGHGTEVIVSS
VL: ALTQPSSVSANPGETVKITCSGGGSSYYAGSYYYGWYQQKAPGSAPVTLIYYNNKRPSDIPSRFSGSLSGSTNTLTITGVRADDEAVYFCGSIDNSGAAFGAGTTLTVLG
Turning to B9, the Kd in assay [3] is 0.21 nM.

B10: surface immunoglobulin of the FN14-specific DTLacO cell population FS24 (antibody, V domains shown)
VH: AVTLDESGGGLQTPGGALSLVCKASGFTFSSYDMAWVRQEPGKGLEWVAGIDYDGSGRRYAPAVKGRATISRDNGQSTLRLQLNNLRAEDTGTYYCTKCGYTGGCDYEGGYIDAWGHGTEVIVSS
VL: ALTQPSSVSANPGETVKITCSGGGSSYYAGSYYYGWYQQKAPGSAPVTLIYYNNKRPSDIPSRFSGSLSGSTNTLTITGVRADDEAVYFCGSIDNSGAAFGAGTTLTVL
notes: Chicken surface IgM on DTLacO cells; also called DTLacO[FS24]
In the case of B10, the dissociation constant (Kd) in assay [2] came out at 0.67 nM; in assay [6] it was 0.44 nM.

B11: Humanized PS4: H.1/L.9 (antibody, human IgG1, lambda)
heavy: not shown
light: ALTQPPSVSVSPGQTARITCSGGGSSYYAGSYYYGWYQQKPGQAPVTVIYYNNKRPSGIPERFSGSLSGSTNTLTISGVQAEDEADYYCGSIDNSGAAFGGGTKLTVLGQPKAAPSVTLFPPSSEELQANKATLVCLISDFYPGAVTVAWKADSSPVKAGVETTTPSKQSNNKYAASSYLSLTPEQWKSHRSYSCQVTHEGSTVEKTVAPTECS
notes: also called humanized PS4 antibody H.1/L.9
As for B11, in assay [1], the Kd was 0.24 nM.

B12: Humanized FS24 (antibody, human IgG1, lambda, V domains shown)
VH: EVQLVESGGGLVQPGGSLRLSCAASGFTFSSYDMAWVRQAPGKGLEWVAGIDYDGSGRRYAPAVKGRATISRDNSKNTLYLQMNSLRAEDTAVYYCTKCGYTGGCDYEGGYIDAWGQGTLVTVSS
VL: ELTQPPSVSVSPGQTARITCSGGGSSYYAGSYYYGWYQQKPGQAPVTLIYYNNKRPSGIPERFSGSLSGSTNTLTISGVQAEDEADYYCGSIDNSGAAFGGGTKLTVLG
notes: also called hFS24; humanized FS24 antibody
Molecule B12 registered a Kd in assay [4] of 0.21 nM.

By Kd is commonly meant a measure of binding affinity in units of concentration.
